pIC50: −log10 of the molar value.

For experiment [1], the target named is formyl peptide receptor (FPR) (UniProt P21462).
Experiment [2] has as its target human C5a receptor (C5aR) (human) (UniProt P21730).
For experiment [3] the target is unchanged. The experiment can be described thus: flow cytometry on cells; competition: RBL cells transfected with human C5aR pre-treated with unlabelled CHIPS or human C5a, then 210 nM FITC-rCHIPS(28-149); cell-associated fluorescence.
The target of experiment [4] is C5a-like receptor 2 (C5L2), the second C5a receptor (UniProt Q9P296). The experiment can be described thus: flow cytometry on cells; inhibition of ligand binding: transfected cells co-incubated with rCHIPS(28-149) and His6-C5a (50 nM), His6-C5a des Arg (50 nM) or FITC-formyl peptide (500 nM); 30 min at 4 °C in PBS + 0.1% BSA, 0.2% NaN3; His6 ligands detected with anti-RGSHis6 and anti-mouse IgG-FITC. (In flow cytometry, cells or beads pass a laser one at a time.)
Chain of C5a-like receptor 2 (C5L2), the second C5a receptor (Q9P296 whole entry): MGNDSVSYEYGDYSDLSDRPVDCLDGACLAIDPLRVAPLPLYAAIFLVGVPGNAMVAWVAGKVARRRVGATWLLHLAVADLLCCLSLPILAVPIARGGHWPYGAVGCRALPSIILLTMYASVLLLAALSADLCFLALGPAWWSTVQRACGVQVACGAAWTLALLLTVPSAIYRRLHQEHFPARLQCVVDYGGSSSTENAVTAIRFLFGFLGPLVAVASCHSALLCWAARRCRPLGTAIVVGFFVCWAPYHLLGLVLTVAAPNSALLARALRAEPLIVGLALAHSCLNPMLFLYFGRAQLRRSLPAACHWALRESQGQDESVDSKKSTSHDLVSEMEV

Experiment [5] addresses human C5a receptor (C5aR) (human) (UniProt P21730). Described as above.
For experiment [6] the target is unchanged. The experiment can be described thus: flow cytometry on cells; kinetics: 300 nM FITC-CHIPS(28-149) added to C5aR-transfected RBL cells, dissociation started with 14 μM unlabelled CHIPS(28-149); Kd from kobs and koff, five experiments.

Chain of human C5a receptor (C5aR) (human) (P21730 whole entry): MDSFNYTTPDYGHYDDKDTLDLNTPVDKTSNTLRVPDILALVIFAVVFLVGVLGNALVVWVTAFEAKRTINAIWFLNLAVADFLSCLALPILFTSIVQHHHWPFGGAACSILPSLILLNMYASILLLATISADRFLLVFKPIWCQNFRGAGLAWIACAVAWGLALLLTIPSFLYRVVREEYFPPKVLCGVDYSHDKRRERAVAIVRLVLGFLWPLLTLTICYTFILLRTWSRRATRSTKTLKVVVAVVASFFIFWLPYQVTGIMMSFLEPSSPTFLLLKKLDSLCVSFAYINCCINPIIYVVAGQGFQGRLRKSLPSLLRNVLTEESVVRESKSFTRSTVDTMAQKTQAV
Chain of formyl peptide receptor (FPR) (P21462 whole entry): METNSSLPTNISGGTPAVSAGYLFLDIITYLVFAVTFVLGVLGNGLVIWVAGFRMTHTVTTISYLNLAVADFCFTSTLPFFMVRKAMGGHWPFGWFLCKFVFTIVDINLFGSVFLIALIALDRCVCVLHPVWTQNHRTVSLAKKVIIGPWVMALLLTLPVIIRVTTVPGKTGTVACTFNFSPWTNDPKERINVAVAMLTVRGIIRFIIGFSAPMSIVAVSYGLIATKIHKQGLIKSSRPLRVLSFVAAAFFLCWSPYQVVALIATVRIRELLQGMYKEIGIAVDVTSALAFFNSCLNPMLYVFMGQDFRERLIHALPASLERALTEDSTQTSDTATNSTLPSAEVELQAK

What is called pIC50 is the negative decadic logarithm of the IC50, by convention in mol/L. For “recombinant chemotaxis inhibitory protein of Staphylococcus aureus, residues 28-149 (rCHIPS_(28–149)) (from UniProt A6QIG7 28-149) (domain or fragment)”, the inhibition of formyl peptide-induced activation of FPR on RBL cells (secretion of β-hexosaminidase) in experiment [1] was above 1 mM. Further, the inhibition of C5a-induced activation of C5aR on RBL cells (secretion of β-hexosaminidase); blocks C5a + C5aR in experiment [2] stood at 2.44 µM. Besides, the pIC50 was 7.16 in experiment [3], 6.56 in experiment [4] and 8.17 in experiment [5].

For the substance “rCHIPS_(30–141) (from UniProt A6QIG7 30-141) (domain or fragment)”, the inhibition of FPR activation by formyl peptide on RBL cells (Schild plot); potency relative to rCHIPS(28-149) in experiment [1] was 12 fold.

In experiment [6], “FITC-labelled recombinant CHIPS_(28–149) (from UniProt A6QIG7 28-149) (domain or fragment)” displayed a t1/2 of association of 10.2 s and a t1/2 of dissociation of 43.8 s.

Source of the values: article PMC2646901.
